The results in this text go back to publication doi:10.1101/2022.04.26.489478, “Shuffled ATG8 interacting motifs form an ancestral bridge between UFMylation and C53-mediated autophagy” (bioRxiv, 2022).

The assay addresses T1, mCherry tagged HsC53 (human, UniProt Q96JB5 1-506).
T1 construct: C53 (CDK5RAP3), Homo sapiens; also called human C53; mCh-HsC53; source: E. coli Rosetta2 (DE3) pLysS, purified (HisTrap, ion exchange, SEC)
T1 sequence (looked up): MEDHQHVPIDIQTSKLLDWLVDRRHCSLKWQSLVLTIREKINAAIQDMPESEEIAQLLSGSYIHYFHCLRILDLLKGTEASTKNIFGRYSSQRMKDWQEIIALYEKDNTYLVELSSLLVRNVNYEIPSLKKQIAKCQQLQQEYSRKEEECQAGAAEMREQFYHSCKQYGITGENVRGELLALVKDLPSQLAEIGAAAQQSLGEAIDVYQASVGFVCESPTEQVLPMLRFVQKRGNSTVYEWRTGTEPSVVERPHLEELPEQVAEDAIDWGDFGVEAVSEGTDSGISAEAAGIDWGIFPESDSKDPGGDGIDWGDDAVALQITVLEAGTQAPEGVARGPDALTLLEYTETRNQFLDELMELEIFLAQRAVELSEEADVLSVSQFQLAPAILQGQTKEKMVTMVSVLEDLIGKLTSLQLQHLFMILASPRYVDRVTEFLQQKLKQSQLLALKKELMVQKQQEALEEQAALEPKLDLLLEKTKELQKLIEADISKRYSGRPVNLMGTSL
Put plainly: microscopy-based on-bead protein-protein interaction assay; GST-tagged bait (2 µM) on Glutathione Sepharose 4B beads, 1 µM mCherry tagged partner with or without competitor, 25 mM HEPES pH 7.5, 150 mM NaCl, 1 mM DTT, 30-60 min at RT, confocal imaging; fluorescence normalized to the control condition. Conditions: both partners purified.

B1: GST-GABARAP (natural protein, human, UniProt O95166 1-117, looked up)
chain: MKFVYKEEHPFEKRRSEGEKIRKKYPDRVPVIVEKAPKARIGDLDKKKYLVPSDLTVGQFYFLIRKRIHLRAEDALFFFVNNVIPPTSATMGQLYQEHHEEDFFLYIAYSDESVYGL
notes: GABARAP, human ATG8 isoform; also called human ATG8 isoform GABARAP; source: E. coli Rosetta2 (DE3) pLysS; in bacterial lysate (pull-downs) and purified (on-bead assays)
As for B1, the binding result is listed as “binds”.
